How the values were obtained:
Human CLDN18.2 = biological target: T1, Human CLDN18.2 (human); test: flow cytometry, SNU 601 cells
T1 construct: on transfected HEK293-6E cells or native on SNU 601 cells

[1] = biological target: T2, Recombinant human/cynomolgus/rhesus macaque CD28 mouse IgG2a Fc fusion protein (Acro Biosystems) (human/cynomolgus/rhesus macaque, UniProt P10747 19-152); test: SPR Biacore T200, CD28-mIgG2a Fc on CM5, construct injected, 1:1 model;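 also: fc fusion captured by amine coupling, run at 25 °C in HEPES buffer pH 7.4, association 140-500 s then dissociation 600-1200 s, values averaged over three independent runs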
T2 construct: bought; also called huCD28

[2] = biological target: T3, Recombinant human CD3 epsilon/delta heterodimer, his tag protein (Acro Biosystems) (human, UniProt P07766 23-126; P04234 22-105); test: SPR Biacore T200, CD3 e/d-his on CM5, construct injected, 1:1 model;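 also: measured at 25 °C in HEPES-buffered saline with EDTA and Tween 20 at pH 7.4, values are means of three independent runs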
T3 construct: bought

[3] = biological target: T4, Recombinant MSLN his tag protein (R&D systems) (UniProt Q13421 296-580, limits assumed); test: SPR Biacore T200, MSLN-his on CM5, construct flowed, 1:1 model
T4 construct: his tag; also called mesothelin

| Binder | Bmax (Human CLDN18.2) | EC50 (Human CLDN18.2) | Kd [1] | koff [1] | kon [1] | Kd [2] | koff [2] | kon [2] | Kd [3] | koff [3] | kon [3] |
| --- | --- | --- | --- | --- | --- | --- | --- | --- | --- | --- | --- |
| v37633 (trispecific antibody, human IgG1, lambda, L234A L235A, Het Fc, FcKO; also called CD28xCD3xCldn18.2 trispecific) heavy 1: not shown heavy 2: QVQLVESGGGLVQPGGSLRLSCSVSGIDLSSNPMIWVRQAPGKGLQYIGIIDTDGSTYYADWAKGRFTISKDSTTVYLQINSPRAEDTAVYYCARRLHGSSNGYYDDLWGQGTLVTVSSGGGGSGGGGSGGGGSGGGGSDGQMTQSPSSVSASVGDRVTITCQASQSIYSYLSWYQQKPGQRPKLLIYKASTLASGVPSRFSGSGSGTDFTLTISSVQPEDFATYYCQQGYTVTNVDKNTFGGGTKVEIKAAEPKSSDKTHTCPPCPAPEAAGGPSVFLFPPKPKDTLMISRTPEVTCVVVSVSHEDPEVKFNWYVDGVEVHNAKTKPREEQYNSTYRVVSVLTVLHQDWLNGKEYKCKVSNKALPAPIEKTISKAKGQPREPQVYVLPPSRDELTKNQVSLLCLVKGFYPSDIAVEWESNGQPENNYLTWPPVLDSDGSFFLYSKLTVDKSRWQQGNVFSCSVMHEALHNHYTQKSLSLSPG light: NFMLTQPHSVSESPGKTVTISCKRNTGNIGSNYVNWYQQHEGSSPTTIIYRNDKRPDGVSDRFSGSIDRSSKSASLTISNLKTEDEADYFCQSYSSGFIFGGGTKLTVLGQPKAAPSVTLFPPSSEELQANKATLVCLISDFYPGAVTVAWKADSSPVKAGVETTTPSKQSNNKYAASSYLSLTPEQWKSHRSYSCQVTHEGSTVEKTVAPTECS | 8570 MFI | 40.8 nM | 55.1 nM | 0.0062 s⁻¹ | 113000 M⁻¹ s⁻¹ | 135 nM | 0.0176 s⁻¹ | 130000 M⁻¹ s⁻¹ | – | – | – |
| v37663 (bispecific antibody, human IgG1, lambda, L234A L235A, 13B08 VH-VL scFv); also called anti-(CLDN18.2xCD3) bispecific control) heavy 1: not shown heavy 2: QVQLVESGGGLVQPGGSLRLSCSVSGIDLSSNPMIWVRQAPGKGLQYIGIIDTDGSTYYADWAKGRFTISKDSTTVYLQINSPRAEDTAVYYCARRLHGSSNGYYDDLWGQGTLVTVSSGGGGSGGGGSGGGGSGGGGSDGQMTQSPSSVSASVGDRVTITCQASQSIYSYLSWYQQKPGQRPKLLIYKASTLASGVPSRFSGSGSGTDFTLTISSVQPEDFATYYCQQGYTVTNVDKNTFGGGTKVEIKAAEPKSSDKTHTCPPCPAPEAAGGPSVFLFPPKPKDTLMISRTPEVTCVVVSVSHEDPEVKFNWYVDGVEVHNAKTKPREEQYNSTYRVVSVLTVLHQDWLNGKEYKCKVSNKALPAPIEKTISKAKGQPREPQVYVLPPSRDELTKNQVSLLCLVKGFYPSDIAVEWESNGQPENNYLTWPPVLDSDGSFFLYSKLTVDKSRWQQGNVFSCSVMHEALHNHYTQKSLSLSPG light: NFMLTQPHSVSESPGKTVTISCKRNTGNIGSNYVNWYQQHEGSSPTTIIYRNDKRPDGVSDRFSGSIDRSSKSASLTISNLKTEDEADYFCQSYSSGFIFGGGTKLTVLGQPKAAPSVTLFPPSSEELQANKATLVCLISDFYPGAVTVAWKADSSPVKAGVETTTPSKQSNNKYAASSYLSLTPEQWKSHRSYSCQVTHEGSTVEKTVAPTECS | 9200 MFI | 31.3 nM | – | – | – | 76.4 nM | 0.0157 s⁻¹ | 206000 M⁻¹ s⁻¹ | – | – | – |
| v37635 (trispecific antibody, human IgG1, lambda, L234A L235A, Het Fc, FcKO; also called CD3xCD28xCldn18.2 trispecific) heavy 1: EVQLVESGGGLVQPGGSLRLSCAASGVTFNYYGMSWIRQAPGKGLEWVASITSSGGRIYYPDSVKGRFTISRENTQKTLYLQMNSLRAEDTAVYYCTLDGRDGWVAYWGQGTLVTVSSASTKGPSVFPLAPSSKSTSGGTAALGCLVKDYFPEPVTVSWNSGALTSGVHTFPAVLQSSGLYSLSSVVTVPSSSLGTQTYICNVNHKPSNTKVDKKVEPKSCDKTHTCPPCPAPEAAGGPSVFLFPPKPKDTLMISRTPEVTCVVVSVSHEDPEVKFNWYVDGVEVHNAKTKPREEQYNSTYRVVSVLTVLHQDWLNGKEYKCKVSNKALPAPIEKTISKAKGQPREPQVYVYPPSRDELTKNQVSLTCLVKGFYPSDIAVEWESNGQPENNYKTTPPVLDSDGSFALVSKLTVDKSRWQQGNVFSCSVMHEALHNHYTQKSLSLSPGGGGGSGDIQMTQSPSSLSASVGDRVTITCRASESVEYYVTSLMQWYQQKPGKAPKLLIYAASNVDSGVPSRFSGSGSGTDFTLTISSLQPEDIATYYCQQSRKVPFTFGGGTKVEIKGGGGSGGGGSGGGGSGGGGSQVQLQESGPGLVKPSETLSLTCAVSGFSLTSYGVHWIRQPPGKGLEWLGVIWPGGGTNFNSALMSRLTISEDTSKNQVSLKLSSVTAADTAVYYCARDRAYGNYLYAMDYWGQGTLVTVSS heavy 2: QVQLVESGGGLVQPGGSLRLSCSVSGIDLSSNPMIWVRQAPGKGLQYIGIIDTDGSTYYADWAKGRFTISKDSTTVYLQINSPRAEDTAVYYCARRLHGSSNGYYDDLWGQGTLVTVSSGGGGSGGGGSGGGGSGGGGSDGQMTQSPSSVSASVGDRVTITCQASQSIYSYLSWYQQKPGQRPKLLIYKASTLASGVPSRFSGSGSGTDFTLTISSVQPEDFATYYCQQGYTVTNVDKNTFGGGTKVEIKAAEPKSSDKTHTCPPCPAPEAAGGPSVFLFPPKPKDTLMISRTPEVTCVVVSVSHEDPEVKFNWYVDGVEVHNAKTKPREEQYNSTYRVVSVLTVLHQDWLNGKEYKCKVSNKALPAPIEKTISKAKGQPREPQVYVLPPSRDELTKNQVSLLCLVKGFYPSDIAVEWESNGQPENNYLTWPPVLDSDGSFFLYSKLTVDKSRWQQGNVFSCSVMHEALHNHYTQKSLSLSPG light: NFMLTQPHSVSESPGKTVTISCKRNTGNIGSNYVNWYQQHEGSSPTTIIYRNDKRPDGVSDRFSGSIDRSSKSASLTISNLKTEDEADYFCQSYSSGFIFGGGTKLTVLGQPKAAPSVTLFPPSSEELQANKATLVCLISDFYPGAVTVAWKADSSPVKAGVETTTPSKQSNNKYAASSYLSLTPEQWKSHRSYSCQVTHEGSTVEKTVAPTECS | 6600 MFI | 30.1 nM | 288 nM | 0.0107 s⁻¹ | 40400 M⁻¹ s⁻¹ | 92.5 nM | 0.0143 s⁻¹ | 157000 M⁻¹ s⁻¹ | – | – | – |
| v34918 (trispecific antibody, human IgG1, kappa, L234A L235A, Het Fc, FcKO; also called CD28xCD3xMSLN trispecific) heavy 1: QVQLQESGPGLVKPSETLSLTCAVSGFSLTSYGVHWIRQPPGKGLEWLGVIWPGGGTNFNSALMSRLTISEDTSKNQVSLKLSSVTAADTAVYYCARDRAYGNYLYAMDYWGQGTLVTVSSASTKGPSVFPLAPSSKSTSGGTAALGCLVKDYFPEPVTVSWNSGALTSGVHTFPAVLQSSGLYSLSSVVTVPSSSLGTQTYICNVNHKPSNTKVDKKVEPKSCDKTHTCPPCPAPEAAGGPSVFLFPPKPKDTLMISRTPEVTCVVVSVSHEDPEVKFNWYVDGVEVHNAKTKPREEQYNSTYRVVSVLTVLHQDWLNGKEYKCKVSNKALPAPIEKTISKAKGQPREPQVYVYPPSRDELTKNQVSLTCLVKGFYPSDIAVEWESNGQPENNYKTTPPVLDSDGSFALVSKLTVDKSRWQQGNVFSCSVMHEALHNHYTQKSLSLSPGGGGGSGNFMLTQPHSVSESPGKTVTISCKRNTGNIGSNYVNWYQQHEGSSPTTIIYRNDKRPDGVSDRFSGSIDRSSKSASLTISNLKTEDEADYFCQSYSSGFIFGGGTKLTVLGGGGSGGGGSGGGGSGGGGSEVQLVESGGGLVQPGGSLRLSCAASGVTFNYYGMSWIRQAPGKGLEWVASITSSGGRIYYPDSVKGRFTISRENTQKTLYLQMNSLRAEDTAVYYCTLDGRDGWVAYWGQGTLVTVSS heavy 2: EIVLTQSPATLSLSPGERVTMSCSASSSVSYMHWYQQKPGQAPRLWIYDTSKLASGVPARFSGSGSGTDYTLTISSVEPEDNAVYYCQQWSGHPLTFGQGTKVEIKGGGGSGGGGSGGGGSGGGGSQVQLVQSGAEVKKPGASVKISCKASGYSFTGYTMNWVRQAPGQGLEWIGLITPYSGASSYAQKFQGRATLTVDKSTSTAYMELSSLRSEDTAVYYCARGGYDGRGFDYWGQGTNVTVSSAAEPKSSDKTHTCPPCPAPEAAGGPSVFLFPPKPKDTLMISRTPEVTCVVVSVSHEDPEVKFNWYVDGVEVHNAKTKPREEQYNSTYRVVSVLTVLHQDWLNGKEYKCKVSNKALPAPIEKTISKAKGQPREPQVYVLPPSRDELTKNQVSLLCLVKGFYPSDIAVEWESNGQPENNYLTWPPVLDSDGSFFLYSKLTVDKSRWQQGNVFSCSVMHEALHNHYTQKSLSLSPG light: DIQMTQSPSSLSASVGDRVTITCRASESVEYYVTSLMQWYQQKPGKAPKLLIYAASNVDSGVPSRFSGSGSGTDFTLTISSLQPEDIATYYCQQSRKVPFTFGGGTKVEIKRTVAAPSVFIFPPSDEQLKSGTASVVCLLNNFYPREAKVQWKVDNALQSGNSQESVTEQDSKDSTYSLSSTLTLSKADYEKHKVYACEVTHQGLSSPVTKSFNRGEC | – | – | 50 nM | 0.00259 s⁻¹ | 52700 M⁻¹ s⁻¹ | 118 nM | 0.0135 s⁻¹ | 118000 M⁻¹ s⁻¹ | 7.08 nM | 0.00187 s⁻¹ | 294000 M⁻¹ s⁻¹ |

Source: patent US20260028403A1 (Zymeworks, published 2026)
